# Laboratory results as given in article PMC9389836.
# Key:
# Test in all cases: SEC
# [1] = target: SARS-CoV-2 Nsp15 A93S (SARS-CoV-2)
# [2] = target: SARS-CoV-2 Nsp15 D133Y (SARS-CoV-2)
# [3] = target: SARS-CoV-2 Nsp15 G18E (SARS-CoV-2)
# [4] = target: SARS-CoV-2 Nsp15 G18R (SARS-CoV-2)
# [5] = target: SARS-CoV-2 Nsp15 H235Y (SARS-CoV-2)
# [6] = target: SARS-CoV-2 Nsp15 K13N (SARS-CoV-2)
# [7] = target: SARS-CoV-2 Nsp15 K13R (SARS-CoV-2)
# [8] = target: SARS-CoV-2 Nsp15 K290N (SARS-CoV-2)
# [9] = target: SARS-CoV-2 Nsp15 L163F (SARS-CoV-2)
# [10] = target: SARS-CoV-2 Nsp15 P206S (SARS-CoV-2)
# [11] = target: SARS-CoV-2 Nsp15 R207S (SARS-CoV-2)
# [12] = target: SARS-CoV-2 Nsp15 T34I (SARS-CoV-2)
# [13] = target: SARS-CoV-2 Nsp15 T113I (SARS-CoV-2)
# [14] = target: SARS-CoV-2 Nsp15 T115A (SARS-CoV-2)
# [15] = target: SARS-CoV-2 Nsp15 V128F (SARS-CoV-2)
# [16] = target: SARS-CoV-2 Nsp15 V321M (SARS-CoV-2)
# [17] = target: SARS-CoV-2 Nsp15 W333C (SARS-CoV-2)
substance,measurement,setting,value
SARS-CoV-2 Nsp15 A93S (enzyme),hexamer/monomer ratio,[1],0.49
SARS-CoV-2 Nsp15 D133Y (enzyme),hexamer/monomer ratio,[2],0.48
SARS-CoV-2 Nsp15 G18E (enzyme),hexamer/monomer ratio,[3],0.56
SARS-CoV-2 Nsp15 G18R (enzyme),hexamer/monomer ratio,[4],0.88
SARS-CoV-2 Nsp15 H235Y (enzyme),hexamer/monomer ratio,[5],1.61
SARS-CoV-2 Nsp15 K13N (enzyme),hexamer/monomer ratio,[6],0.63
SARS-CoV-2 Nsp15 K13R (enzyme),hexamer/monomer ratio,[7],1.18
SARS-CoV-2 Nsp15 K290N (enzyme),hexamer/monomer ratio,[8],2.12
SARS-CoV-2 Nsp15 L163F (enzyme),hexamer/monomer ratio,[9],0.23
SARS-CoV-2 Nsp15 P206S (enzyme),hexamer/monomer ratio,[10],2.49
SARS-CoV-2 Nsp15 R207S (enzyme),hexamer/monomer ratio,[11],0.14
SARS-CoV-2 Nsp15 T34I (enzyme),hexamer/monomer ratio,[12],1.01
SARS-CoV-2 Nsp15 T113I (enzyme),hexamer/monomer ratio,[13],1.79
SARS-CoV-2 Nsp15 T115A (enzyme),hexamer/monomer ratio,[14],0.55
SARS-CoV-2 Nsp15 V128F (enzyme),hexamer/monomer ratio,[15],0.5
SARS-CoV-2 Nsp15 V321M (enzyme),hexamer/monomer ratio,[16],0.65
SARS-CoV-2 Nsp15 W333C (enzyme),hexamer/monomer ratio,[17],0.77
